{"source": "patent US20110086797A1", "about": "“CONTROL OF SPORE GERMINATION” (priority 2007, published 2011)", "molecules": {"B1": {"name": "His6-PASTABs: His-tagged C-terminal extracellular fragment of B. subtilis PrkC, residues 357-648, three PASTA repeats (protein)", "chain": "MLIGKRISGRYQILRVIGGGGMANVYLAEDIILDREVAIKILRFDYANDNEFIRRFRREAQSASSLDHPNIVSIYDLGEEDDIYYIVMEYVEGMTLKEYITANGPLHPKEALNIMEQIVSAIAHAHQNQIVHRDIKPHNILIDHMGNIKVTDFGIATALSSTTITHTNSVLGSVHYLSPEQARGGLATKKSDIYALGIVLFELLTGRIPFDGESAVSIALKHLQAETPSAKRWNPSVPQSVENIILKATAKDPFHRYETAEDMEADIKTAFDADRLNEKRFTIQEDEEMTKAIPIIKDEELAKAAGEKEAEVTTAQENKTKKNGKRKKWPWVLLTICLVFITAGILAVTVFPSLFMPKDVKIPDVSGMEYEKAAGLLEKEGLQVDSEVLEISDEKIEEGLMVKTDPKADTTVKEGATVTLYKSTGKAKTEIGDVTGQTVDQAKKALKDQGFNHVTVNEVNDEKNAGTVIDQNPSAGTELVPSEDQVKLTVSIGPEDITLRDLKTYSKEAASGYLEDNGLKLVEKEAYSDDVPEGQVVKQKPAAGTAVKPGNEVEVTFSLGPEKKPAKTVKEKVKIPYEPENEGDELQVQIAVDDADHSISDTYEEFKIKEPTERTIELKIEPGQKGYYQVMVNNKVVSYKTIEYPKDE"}}, "system": "B. subtilis peptidoglycan", "test": "Peptidoglycan binding (pelleting with insoluble peptidoglycan, SDS-PAGE/Coomassie)", "parameters": "species or system Bacillus subtilis", "conditions": "for binding to cell wall (result in words): his6-tagged extracellular domain", "description": "Peptidoglycan Binding. The C-terminal fragment of PrkC (His6-PASTABs) composed of residues 357-648 was purified using Ni^2+ affinity chromatography with an E. coli strain carrying pIMS40 that overproduces His6-PASTABs. His6-Yycl composed of residues 31-280 was purified using identical methodology using an E. coli strain carrying pIMS36. His6-AcmA composed of residues 243-439 using an E. coli strain carrying pIMS42 and His6-PASTASa composed of residues 378-644 using an E. coli strain carrying pIMS44 were purified using identical methodology. 50 μg of proteins was separately incubated with purified B. subtilis or S. aureus peptidoglycan (˜5 mg) in 20 mM Tris-HCl, 50 mM MgCl2, 500 mM NaCl for 30 min at 4° C. Centrifugation (10 min, 15 k) was employed to remove the supernatant (soluble fraction) and the pellet was washed twice, then resuspended it in 2% SDS and incubated at RT for 1 h. Bound fraction (insoluble fraction) was recovered by removing the […] by centrifugation. Fractions consisting of unbound soluble protein and insoluble bound protein, and the wash were analyzed by SDS-PAGE. The gels were stained with Coomassie blue and the differences in the amounts of His6-PASTA in the two fractions were determined by measurement of the appropriate bands using ImageJ (NIH)."}
{"molecule": "B1", "values": [{"measurement": "% of total protein associated with the insoluble (peptidoglycan-bound) fraction", "setting": "50 μg protein, ˜5 mg purified peptidoglycan", "value": "Approximately 40%"}, {"measurement": "binding to cell wall (result in words)", "value": "binds to cell wall much better than Yycl"}, {"measurement": "binding to cell wall (result in words)", "setting": "listed as extracellular domain of PrkC", "value": "bound to cell wall much better than a control protein"}]}
